The values that follow are results of earlier work, collected in publication PMC8168288.

Broadly, the Kd is the constant that tells how readily two partners part at equilibrium.

The target in this data set is BCOR peptide (Homo sapiens) (UniProt Q6W2J9). Kind of data set: SPR.
Sequence of BCOR peptide (Homo sapiens) (Q6W2J9 whole entry): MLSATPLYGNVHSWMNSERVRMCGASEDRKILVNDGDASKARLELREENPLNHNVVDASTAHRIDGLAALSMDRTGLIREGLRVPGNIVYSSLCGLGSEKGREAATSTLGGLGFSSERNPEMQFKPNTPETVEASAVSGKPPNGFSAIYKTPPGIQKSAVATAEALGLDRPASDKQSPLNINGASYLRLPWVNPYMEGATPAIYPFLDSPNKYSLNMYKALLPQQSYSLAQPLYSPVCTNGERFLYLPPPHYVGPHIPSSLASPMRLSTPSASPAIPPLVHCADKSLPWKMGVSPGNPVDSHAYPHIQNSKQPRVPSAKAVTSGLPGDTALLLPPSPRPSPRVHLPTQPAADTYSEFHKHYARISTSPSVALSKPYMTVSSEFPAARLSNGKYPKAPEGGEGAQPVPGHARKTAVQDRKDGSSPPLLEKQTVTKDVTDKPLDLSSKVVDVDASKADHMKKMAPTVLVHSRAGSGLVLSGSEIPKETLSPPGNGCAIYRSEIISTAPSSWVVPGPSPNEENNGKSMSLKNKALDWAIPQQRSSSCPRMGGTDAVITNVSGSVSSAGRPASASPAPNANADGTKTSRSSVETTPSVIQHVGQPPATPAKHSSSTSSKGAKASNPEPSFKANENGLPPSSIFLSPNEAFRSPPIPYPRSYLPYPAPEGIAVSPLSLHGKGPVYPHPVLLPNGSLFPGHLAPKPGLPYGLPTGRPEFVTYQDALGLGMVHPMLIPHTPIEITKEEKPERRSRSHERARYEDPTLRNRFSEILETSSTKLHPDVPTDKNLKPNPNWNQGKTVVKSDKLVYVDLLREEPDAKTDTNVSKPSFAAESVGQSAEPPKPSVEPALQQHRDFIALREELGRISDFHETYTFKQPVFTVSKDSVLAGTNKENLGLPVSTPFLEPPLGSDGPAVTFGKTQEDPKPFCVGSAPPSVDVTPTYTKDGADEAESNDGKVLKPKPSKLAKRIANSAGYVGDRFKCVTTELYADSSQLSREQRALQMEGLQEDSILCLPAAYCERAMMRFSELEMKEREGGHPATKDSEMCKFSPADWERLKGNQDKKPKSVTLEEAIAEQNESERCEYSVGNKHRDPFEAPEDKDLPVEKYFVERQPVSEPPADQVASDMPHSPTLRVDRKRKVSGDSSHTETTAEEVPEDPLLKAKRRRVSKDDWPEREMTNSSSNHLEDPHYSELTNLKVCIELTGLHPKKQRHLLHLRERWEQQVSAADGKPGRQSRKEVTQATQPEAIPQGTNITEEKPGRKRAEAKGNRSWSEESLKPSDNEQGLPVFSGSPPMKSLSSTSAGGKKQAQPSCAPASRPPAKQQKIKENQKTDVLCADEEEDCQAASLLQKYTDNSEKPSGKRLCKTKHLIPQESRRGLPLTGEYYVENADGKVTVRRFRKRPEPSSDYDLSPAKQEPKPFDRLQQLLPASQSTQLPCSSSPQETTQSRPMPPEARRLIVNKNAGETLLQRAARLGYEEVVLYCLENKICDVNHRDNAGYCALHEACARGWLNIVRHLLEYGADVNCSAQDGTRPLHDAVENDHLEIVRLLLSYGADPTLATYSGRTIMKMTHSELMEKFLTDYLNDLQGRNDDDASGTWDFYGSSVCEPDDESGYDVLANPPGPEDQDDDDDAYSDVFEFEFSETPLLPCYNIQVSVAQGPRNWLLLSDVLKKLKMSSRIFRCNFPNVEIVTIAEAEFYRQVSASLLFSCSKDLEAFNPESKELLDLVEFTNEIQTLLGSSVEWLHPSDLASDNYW

For BCL6 BTB (from UniProt P41182), the Kd was 6 µM.
